Values quoted from earlier work, collected in US20100069292A1, “INSULIN WITH A BASAL RELEASE PROFILE” (Biodel, Inc., priority 2008, published 2010).

Experiments:
[1] = patients, compared with NPH insulin
[2] = in vivo

In the case of insulin glargine, the “risk of low blood glucose (hypoglycemia)” value [1] is given as “much lower risk of low blood glucose (hypoglycemia) than the patients who took NPH insulin” and the “duration of blood glucose lowering after injection” value [2] is given as “up to 24 hours”.
